Data on one molecule can be found in PMC9596381, “GPC3-Unc5 receptor complex structure and role in cell migration” (Cell, 2022).

The target of assay [1] is T1, murine GPC3 ectodomain, residues 31-559 (mGPC3^ecto) (mouse, UniProt Q8CFZ4 31-559).
T1 construct: mouse glypican-3 (GPC3), residues 31-559; source: HEK293 cells, purified
Briefly: SPR; Unc5A-D ectodomains immobilised; hGPC3^core or mGPC3^ecto injected in a 2-fold dilution series (top 4.5 uM) with Fc control protein, Nano^glue or Nano^break kept constant at 9 uM (with hGPC3^core) or 4.5 uM (with mGPC3^ecto). Particulars: both partners purified. For orientation: In SPR one partner is held on a chip, and binding of the other changes the refractive index at the surface.

In assay [2] the target is T2, human glypican-3 core domain, residues 32-483 (hGPC3^core) (human, UniProt P51654 32-483, N-linked glycans at N124 and N241).
T2 construct: human glypican-3 (GPC3), core domain, residues 32-483; Only partly cleaved at the furin-like site (R355-R358); the two fragments stay covalently attached; The forward primer starts at Met1; source: HEK293T or GnTI-deficient HEK293S, transiently transfected, secreted, purified (HisTrap, SEC); not shown: His6, C-terminal, kept
The assay is described as above. The conditions noted are these: both partners purified.

T1 sequence (Q8CFZ4 31-559): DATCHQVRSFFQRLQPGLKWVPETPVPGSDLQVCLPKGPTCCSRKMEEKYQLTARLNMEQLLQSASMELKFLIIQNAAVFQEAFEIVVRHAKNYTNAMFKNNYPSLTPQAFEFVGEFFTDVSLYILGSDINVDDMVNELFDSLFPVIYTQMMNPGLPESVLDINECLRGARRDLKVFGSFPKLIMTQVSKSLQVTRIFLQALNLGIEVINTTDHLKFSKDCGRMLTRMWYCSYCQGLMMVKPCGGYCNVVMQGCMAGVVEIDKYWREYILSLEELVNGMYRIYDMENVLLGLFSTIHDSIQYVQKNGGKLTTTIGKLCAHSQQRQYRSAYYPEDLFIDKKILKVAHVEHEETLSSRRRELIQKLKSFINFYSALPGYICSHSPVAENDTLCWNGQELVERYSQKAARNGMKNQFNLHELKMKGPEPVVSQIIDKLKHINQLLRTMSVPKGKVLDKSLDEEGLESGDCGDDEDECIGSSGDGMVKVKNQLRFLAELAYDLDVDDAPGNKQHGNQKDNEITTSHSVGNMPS
T2 sequence (P51654 32-483): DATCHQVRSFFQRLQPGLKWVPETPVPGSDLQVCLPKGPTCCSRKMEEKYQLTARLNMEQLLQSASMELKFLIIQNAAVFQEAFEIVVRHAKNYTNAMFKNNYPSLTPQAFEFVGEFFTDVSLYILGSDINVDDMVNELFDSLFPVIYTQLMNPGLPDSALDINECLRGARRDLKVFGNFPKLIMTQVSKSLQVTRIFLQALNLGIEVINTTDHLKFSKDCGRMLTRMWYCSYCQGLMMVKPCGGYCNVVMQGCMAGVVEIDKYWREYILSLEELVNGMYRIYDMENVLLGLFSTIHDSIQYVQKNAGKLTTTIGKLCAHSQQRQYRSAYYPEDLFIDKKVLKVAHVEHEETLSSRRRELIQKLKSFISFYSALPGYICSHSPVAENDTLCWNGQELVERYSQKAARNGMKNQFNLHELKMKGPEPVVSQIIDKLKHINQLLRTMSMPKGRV

B1: mouse Unc5A ectodomain, residues 1-359 (mUnc5A^ecto) (domain or fragment)
chain: not shown
modifications: biotin on the Avi-tag
notes: signal peptide in the construct; mouse Unc5A, residues 1-359; source: HEK293 cells, purified; not shown: Avi-tag, C-terminal, kept
As for B1, the binding result in assay [1] and in assay [2] was “binds” each time.
